Patent US20190106493A1 (MABQUEST, published 2019)

B1: 137F2 (antibody, V domains shown)
VH: QVQLQQPGAELVRPGTSVKMSCKAAGYTFTNYWIGWIKQRPGHGLEWIGDIYPGGGYTNYNEKFKGKATLTADTSSSTAYMQVSSLTSEDTGIYYCARGYDFVLDRWGQGTSVTVSS
VL: DIVMSQSPSSLAVSTGEKVTMTCKSSQSLFNSETQKNYLAWYQQKPGQPPKLLIFWASTRESGVPDRFLGSGSGTDFTLTISSVQAEDLAVYYCKQSYTLRTFGGGTKLEIK
B2: 135C12 (antibody, V domains shown)
VH: EVQLHQSGPELLKPGASVRMSCKASGYTFTNFYIHWVKQSHGKSIEWIGSIYPNYGDTAYNQKFKDKATLTVDKSSSTAYMALRSLTSEDSAVYYCARGYSYAMDYWGQGTSVTVSS
VL: NIVMTQSPKSMSMSVGERVTLTCKASENVVTYVSWYQQKPEQSPKLLIYGASNRYTGVPDRFTGSGSATDFTLTISSVQAEDLADYHCGQGYSYPYTFGGGTKLEIK

Experiments:
[1] = target: endogenous cell surface PD-1 on activated CD4 T cells (human, UniProt Q15116 25-288); test: cell-based or functional assay
endogenous cell surface PD-1 on activated CD4 T cells, sequence (Q15116 25-288): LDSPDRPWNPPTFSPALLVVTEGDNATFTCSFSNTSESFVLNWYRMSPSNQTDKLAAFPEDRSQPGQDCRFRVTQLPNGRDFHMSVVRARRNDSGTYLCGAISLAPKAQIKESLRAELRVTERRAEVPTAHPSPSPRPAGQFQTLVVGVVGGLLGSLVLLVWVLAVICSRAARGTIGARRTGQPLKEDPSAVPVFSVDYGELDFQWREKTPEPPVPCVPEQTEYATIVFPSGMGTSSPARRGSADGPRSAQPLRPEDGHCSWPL

[2] = target: T1, PD-1 Fc fusion protein (human, UniProt Q15116 25-167, limits assumed); test: FIG. 5A; Luminex, PD-1 Fc beads, antibody titrated, competitor: fixed biotinylated PD-L1
T1 construct: construct limits, linker and Fc not described; the bead protein is printed only as 'PD-1 Fc fusion protein'; also called human PD-1 Fc fusion protein; PD-1 Fc fusion protein coated beads
T1 sequence (Q15116 25-167 limits assumed): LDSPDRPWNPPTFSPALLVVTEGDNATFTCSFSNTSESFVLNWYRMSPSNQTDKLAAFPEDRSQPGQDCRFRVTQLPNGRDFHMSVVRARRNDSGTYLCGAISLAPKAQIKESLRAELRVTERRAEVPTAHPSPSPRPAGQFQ

| Binder | EFRA % relative to peptide stimulation alone [1] [%] | IC50 [2] [nM] |
| --- | --- | --- |
| B1 | 250 | ~0.2 |
| B2 | 195 | – |
